How the values were obtained:
[1] = target: T1, human KIX domain of CBP (residues 587-673) with 36 extra N-terminal residues (human, UniProt Q92793 587-673, RED-tris-NTA dye bound non-covalently to the His tag); assay: MST; His-tagged KIX labelled with RED-tris-NTA, 20 nM; peptide varied; PBS-Tween (pH 7.4; 0.05% v/v Tween 20); Monolith NT; conditions: both partners purified
T1 construct: synthetic codon-optimised gene in pET100/TOPO; construct 14.5 kDa; no cleavage is described; also called His-tagged KIX domain; source: E. coli BL21 DE3, purified (Histrap HP, Resource Q, Superdex 75); not shown: His6, N-terminal, kept
T1 sequence (Q92793 587-673): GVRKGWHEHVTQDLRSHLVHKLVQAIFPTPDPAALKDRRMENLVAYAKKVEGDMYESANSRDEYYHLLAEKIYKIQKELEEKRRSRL

[2] = target: T1, human KIX domain of CBP (residues …); assay: MST; as a1, KBM peptide binding to labelled KIX in the presence of the 9aaTAD peptide (its concentration not told); conditions: both partners purified

Kd [1] [nM] | Kd [2] [nM] | Binder
~600 | ~1100 | EEEYRALLEE (source: synthetic peptide, bought: GenScript) [DUX4 KBM peptide for binding analysis]
~200 | – | CGLLLDELLASPEFLQQ (source: synthetic peptide, bought: GenScript) [DUX4 9aaTAD peptide for binding analysis]

Reference: PMC8990217, “DUX4 is a multifunctional factor priming human embryonic genome activation” (iScience, 2022)
